Measured values as given in IntAct's records for PubMed 16462746.

B1: Rab5 GDP/GTP exchange factor (Bos taurus (Bovine)), O18973 (parent)
chain: MSLKSERRGIHVDQSELLCKKGCGYYGNPAWQGFCSKCWREEYHKARQKQIQEDWELAERLQREEEEAFASSQSSQGAQSLTFSKFEEKKTNEKTRKVTTVKKFFSASSRVGAKKAEIQEAKAPSPSINRQTSIETDRVSKEFIEFLKTFHKTGQEIYKQTKLFLEAMHYKRDLSIEEQSECTQDFYQNVAERMQTRGKVPPERVEKIMDQIEKYIMTRLYKYVFCPETTDDEKKDLAIQKRIRALHWVTPQMLCVPVNEEIPEVSDMVVKAITDIIEMDSKRVPRDKLACITKCSKHIFNAIKITKNEPASADDFLPTLIYIVLKGNPPRLQSNIQYITRFCNPSRLMTGEDGYYFTNLCCAVAFIEKLDAQSLNLSQEDFDRYMSGQTSPRKQESENWSPDACLGVKQMYKNLDLLSQLNERQERIMNEAKKLEKDLIDWTDGIAKEVQDIVEKYPLEIRPPNQSVAAIDSENVENDKLPPPLQPQVYAG

Variants of: B1
Conditions: with UBE2D3, P61077-1
Sequence of UBE2D3, P61077-1 (P61077 whole entry): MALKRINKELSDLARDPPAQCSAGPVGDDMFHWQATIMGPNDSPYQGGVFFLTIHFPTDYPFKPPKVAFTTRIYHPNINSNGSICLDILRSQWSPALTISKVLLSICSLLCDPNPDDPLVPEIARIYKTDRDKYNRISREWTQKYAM

For Y25A;Y26A, which “effect of a mutation on the interaction” value is on record?
Its value is “disrupting interaction”.
